This note sets out measurements from the supplement of paper PMC12764529.

Series [1] in a line: folding stability dG unfold from chymotrypsin proteolysis; higher = more stable. Put shortly: (§1)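 Designed mini-proteins (under 80 residues, no cysteine) in a PA-tagged cDNA display construct were digested with trypsin and chymotrypsin. Each protease was used at 11 concentrations (threefold dilutions) plus a no-protease condition, followed by sequencing. K50 was inferred by Bayesian fitting of sequencing counts, and unfolding free energy was derived against a sequence-predicted unfolded-state K50 and a shared folded-state K50, per protease or combined. Only designs with AlphaFold2 dimer inter-PAE above 15 were kept.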

The nature of series [2]: folding stability dG unfold (combined trypsin and chymotrypsin); higher = more stable. Put shortly: as §1
Series [3] is described as follows: folding stability dG unfold from trypsin proteolysis; higher = more stable. Put shortly:
as §1

± gives the half width of the 95% confidence interval.

In the case of “SAGGSAGGSPVVLYEVDPSTNSVTLTVEVLHPDGTPLRKEYTTNGDPLEAALRFAKAVLEEAGSAGGSAGGS [r20_33_TrMRF]”, the “folding stability dG unfold” value is 0.813 ± 0.17 kcal/mol in series [1], 0.699 ± 0.12 kcal/mol in series [2] and 0.407 ± 0.21 kcal/mol in series [3].

Turning to “SAGGSAGGSSGMVKAEFGLVAPDGTPVSTRTLTFSSEEEIEEALAALPEFSLALVPDVKRGPLSAGGSAGGS [r12_182_JUSTAS]”, the results for the “folding stability dG unfold” value in series [1], in series [2] and in series [3] were 0.86 ± 0.13 kcal/mol, 0.51 ± 0.14 kcal/mol and -0.586 ± 0.38 kcal/mol, respectively.

Take “SAGGSAGGSSKNGKPKPTIKVEMPDKPGPHEIPIPESDPDEAKTLAEELAQKWPGVPVRIEPTSAGGSAGGS [r12_601_TrROS]”: the “folding stability dG unfold” value was 0.989 ± 0.057 kcal/mol in series [1], 0.582 ± 0.13 kcal/mol in series [2] and -0.293 ± 0.1 kcal/mol in series [3].

As to “SAGGSAGGSSKYIKFIIPANSPEAIEKAKELAEFIKKKYPGIKKIEVKYNPEKGYLEVIAEVESAGGSAGGS [r12_248_TrMRF]”, the results for the “folding stability dG unfold” value in series [1], in series [2] and in series [3] were 3.87 ± 0.048 kcal/mol, 3.96 ± 0.17 kcal/mol and 4.08 ± 0.28 kcal/mol, respectively.

Regarding “SAGGSAGGSSLEEIAKKLGLKPGMRVRLSDGKVLEVPSLDDLKAALEAGLSLEELKKIEIEPVSAGGSAGGS [r12_430_TrROS_Hall]”, the “folding stability dG unfold” value came to 1.68 ± 0.04 kcal/mol in series [1], 1.42 ± 0.12 kcal/mol in series [2] and 1.13 ± 0.023 kcal/mol in series [3].

As to “SAGGSAGGSSLKPGQELELTLTLRVEVEVEVYENGKPVERYRVEREVRLTLRLKLPAASLEDLSAGGSAGGS [r20_14_TrROS_Hall]”, the “folding stability dG unfold” value stood at 5.73 ± 0.21 kcal/mol in series [1], 5.55 ± 0.15 kcal/mol in series [2] and 4.06 ± 0.14 kcal/mol in series [3].

Regarding “SAGGSAGGSSLTLRLRLRLRVRVLDEETGELSEFEVEVELELRFEPAPPPPPPPLVLRDGKLVSAGGSAGGS [r12_140_TrROS_Hall]”, the “folding stability dG unfold” value in series [1] is 4.53 ± 0.18 kcal/mol; in series [2] it was 4.34 ± 0.34 kcal/mol; in series [3] it was 3.43 ± 0.15 kcal/mol.

With “SAGGSAGGSSMPTMTKVGDTWLYYDPSTDIKRPATVTVDDGKITIDGDSGTTVYDGDLVIETSSAGGSAGGS [r12_683_JUSTAS]”, the entries for the “folding stability dG unfold” value in series [1], in series [2] and in series [3] were -0.313 ± 0.13 kcal/mol, 0.149 ± 0.1 kcal/mol and 0.389 ± 0.057 kcal/mol, respectively.

With “SAGGSAGGSSMTFEVVEIERPPGDEIRVLVKREDGREFAEITLPPGASPEEIERAVREAVEAESAGGSAGGS [r12_798_JUSTAS]”, the “folding stability dG unfold” value in series [1] worked out at 1.55 ± 0.057 kcal/mol; in series [2], 1.26 ± 0.28 kcal/mol; in series [3], 0.707 ± 0.07 kcal/mol.

For “SAGGSAGGSSMTFISTSTSPGNGYTYNIYSQPGKVVVTTTAPDGTVSVTTVEVSPDTSVTVTAASAGGSAGG [r6_380_JUSTAS]”, the “folding stability dG unfold” value was 1.36 ± 0.12 kcal/mol in series [1], 1.3 ± 0.085 kcal/mol in series [2] and 1.16 ± 0.045 kcal/mol in series [3].

Consider “SAGGSAGGSSPEENLETQVETELLEEFKPGDKPRKLVKTTVTYPDGTTKEEIVTIDENGNILLSAGGSAGGS [r12_755_JUSTAS]”, for which the “folding stability dG unfold” value in series [1] is -0.117 ± 0.065 kcal/mol; in series [2], -0.0945 ± 0.1 kcal/mol; in series [3], -0.206 ± 0.049 kcal/mol.

In the case of “SAGGSAGGSSPITIPIPLSELSEETLKKIAEENPEGETPIKIIKPDGTPVTIVVKPGGEIIGASAGGSAGGS [r12_1054_JUSTAS]”, the “folding stability dG unfold” value was found to be 1.09 ± 0.068 kcal/mol in series [1], 1.01 ± 0.075 kcal/mol in series [2] and 0.728 ± 0.046 kcal/mol in series [3].

“SAGGSAGGSSPPVTVIPLKIPVDPDTTPEEIKEELAAKVPPNSSVKVDTKPGSGTVNVTVTISSAGGSAGGS [r12_12_JUSTAS]”: the figures for the “folding stability dG unfold” value in series [1], in series [2] and in series [3] were -0.14 ± 0.11 kcal/mol, 0.753 ± 0.14 kcal/mol and 1.12 ± 0.061 kcal/mol, respectively.

As for “SAGGSAGGSSPVRMVATIPLPDGTTITVEAEIVRLPDGTILIKTPSGEIIEVPPDVPVEFFPESAGGSAGGS [r20_227_JUSTAS]”, the “folding stability dG unfold” value in series [1] came to 2.45 ± 0.052 kcal/mol; in series [2], 2.23 ± 0.054 kcal/mol; in series [3] it was 1.78 ± 0.057 kcal/mol.

On to “SAGGSAGGSSSYSVPDSSSVTLETTVTITFPSSSVGGSPASSGPVAFTVPVKVTVSVTNPGVASAGGSAGGS [r12_668_JUSTAS]”, for which the “folding stability dG unfold” value in series [1] was found to be 0.532 ± 0.18 kcal/mol; in series [2], 1.02 ± 0.14 kcal/mol; in series [3], 1.18 ± 0.029 kcal/mol.

Consider “SAGGSAGGSSTATFTLSRLPDGTYRLTLYDPSTNKVTTEEVPASRPDEYSAVTVSSDGTVTTASAGGSAGGS [r20_11_JUSTAS]”, for which the “folding stability dG unfold” value was found to be 0.338 ± 0.11 kcal/mol in series [1], 0.662 ± 0.095 kcal/mol in series [2] and 0.771 ± 0.076 kcal/mol in series [3].

Regarding “SAGGSAGGSSTTPVTITVPESILDEIKKKAEELGIKVEVEIKESPENKKYATVTIEIPENVELSAGGSAGGS [r12_653_JUSTAS]”, the “folding stability dG unfold” value in series [1] was -0.248 ± 0.25 kcal/mol; in series [2], 0.509 ± 0.14 kcal/mol; in series [3] it was 0.935 ± 0.081 kcal/mol.

Turning to “SAGGSAGGSSVIEVTFSDGSKALFFPGSQKVVVYNPSTKKKIVIPPGVSPETALKAIAEGKPISAGGSAGGS [r12_832_TrMRF]”, the “folding stability dG unfold” value in series [1] is 0.185 ± 0.073 kcal/mol; in series [2] it was 0.671 ± 0.13 kcal/mol; in series [3], 0.91 ± 0.056 kcal/mol.

Turning to “SAGGSAGGSSVLEVDPETGITVAVQDPSTGRYYVRNPEGEIREFDSPEEIREAFGRPVNFKTAPSAGGSAGG [r6_753_JUSTAS]”, the “folding stability dG unfold” value is 0.787 ± 0.082 kcal/mol in series [1], 0.753 ± 0.057 kcal/mol in series [2] and 0.559 ± 0.018 kcal/mol in series [3].

As for “SAGGSAGGSSYTVSEDPNSSSTTITDPVTGRTVLRSPSSWTVVDPETGEEKSFPAGTVVTLPESAGGSAGGS [r12_584_JUSTAS]”, the “folding stability dG unfold” value was 1.06 ± 0.056 kcal/mol in series [1], 0.724 ± 0.042 kcal/mol in series [2] and -0.146 ± 0.13 kcal/mol in series [3].

With “SAGGSAGGSTIDITLPDLDEEEIREYLKELFPDVEVTIEYDPSTNTYTLKVGGDEVVVTRLPPNSAGGSAGG [r6_609_JUSTAS]”, the “folding stability dG unfold” value is 3.43 ± 0.038 kcal/mol in series [1], 3.43 ± 0.057 kcal/mol in series [2] and 3.25 ± 0.086 kcal/mol in series [3].

“SAGGSAGGSTLKLEIVNEDGYKVEIEAELELVEKDGKLVLKLKVKIKVEPAKEVKEVKVELPESAGGSAGGS [r12_581_TrROS_Hall]”: the “folding stability dG unfold” value is 3.87 ± 0.2 kcal/mol in series [1], 3.45 ± 0.44 kcal/mol in series [2] and 1.95 ± 0.16 kcal/mol in series [3].

In the case of “SAGGSAGGSVEKLKKALEKLGIKVENVKIEVKTNKNGKKTVTIYVNGKKLSKEEIKKALKEIKSAGGSAGGS [r12_175_TrROS_Hall]”, the “folding stability dG unfold” value in series [1] was 4.46 ± 0.33 kcal/mol; in series [2], 4.24 ± 0.44 kcal/mol; in series [3], 2.99 ± 0.23 kcal/mol.

On to “SAGGSAGGSVESATTTITITASLTPEEVEEIIEELKKKGLNVKKVEIEREPETGSVTITVTVNPSAGGSAGG [r6_514_JUSTAS]”, for which the “folding stability dG unfold” value came out at 2.92 ± 0.075 kcal/mol in series [1], 3.14 ± 0.093 kcal/mol in series [2] and 3.2 ± 0.1 kcal/mol in series [3].

For the sequence “SAGGSAGGSVKITTEPDPNGYYRVTVTIRLNDKPIPVDMPFPPGKTPDQVKEKARDIAKELLKSAGGSAGGS [r12_69_TrROS]”, the “folding stability dG unfold” value was found to be 0.546 ± 0.13 kcal/mol in series [1], 0.455 ± 0.091 kcal/mol in series [2] and 0.249 ± 0.089 kcal/mol in series [3].

As to “SAGGSAGGSVKPGQEIEVRVELTYDEETGELTIRREVVNKETGELIAEEEITISLEDLPPELLSAGGSAGGS [r12_145_TrROS_Hall]”, the “folding stability dG unfold” value in series [1] stood at 1.51 ± 0.04 kcal/mol; in series [2] it was 1.63 ± 0.076 kcal/mol; in series [3] it was 1.83 ± 0.083 kcal/mol.
